The values below come from US20200223906A1 (Adimab, published 2020).

In assay [1] the target is T1, RSV F subtype B, furin-cleaved ectodomain stabilized in the prefusion conformation (DS-Cav1) (Respiratory syncytial virus subtype B).
T1 construct: extracellular domain; Trimeric soluble antigen; also called Prefusion subtype B
In words: BLI, IgG on AHQ sensor, 100 nM antigen.

Assay [2] addresses T2, RSV F subtype A, furin-cleaved ectodomain stabilized in the prefusion conformation (DS-Cav1) (Respiratory syncytial virus subtype A, UniProt P03420 26-524).
T2 construct: extracellular domain; Trimeric soluble antigen; also called Prefusion subtype A
As to the kind of experiment: BLI, IgG on AHQ sensor, 100 nM antigen. On the technique in general: Biolayer interferometry detects binding as a change in optical thickness at a sensor tip.

For assay [3], the target named is RSV F protein of subtype A (strain A2) on recombinant mKate-RSV virus (Respiratory syncytial virus subtype A …, UniProt P03420 26-574). In words: cell-based or functional assay.
The target of assay [4] is RSV F protein of subtype B (18537) on recombinant mKate-RSV virus (Respiratory syncytial virus subtype B …, UniProt P13843 26-574). In words: cell-based or functional assay.

For orientation: Kd means the constant that tells how readily two partners part at equilibrium. A low value points to tighter binding.

B1: ADI-18975 (antibody, V domains shown)
VH: QVQLVQSGAEVKKPGASVKVSCKASGYTFVHYGISWVRQAPGQGLEWMGWISAYNGNTNSALKFQDRVTMTTDPSTSTAYMELRSLRSDDTAIYYCARDSGCCSGSTSDVWGKGTTVTVSS
VL: DIVMTQSPLSSPVTLGQPASISCRSSQSLVHSDGNTYLSWLHQRPGQPPRLLIYKISHRFSGVPDRFTGSGAGTDFTLKISRVEAEDVGVYYCMQATEFPPMYTFGQGTKVEIK
notes: full-length IgG from yeast; also called Antibody Number 323; Ab # 323
As for B1, the dissociation constant (Kd) in assay [1] is 0.298 nM; in assay [2], 0.267 nM. Further, the “Neut IC50 (µg/ml) subtype A” value in assay [3] was 0.037 µg/mL. The “Neut IC50 (µg/ml) subtype B” value in assay [4] is 0.174 µg/mL.

B2: ADI-18953 (antibody, V domains shown)
VH: QVQLVQSGAEVKKPGSSVKVSCKASGGTFSGYAINWVRQAPGQGLEWMGGIIHIFGTVNYAPKFQGRLTITADASTGTAYMELSSLMSEDTALYYCARDAYEVWTGSYLPPFDYWGQGTLVTVSS
VL: ETTLTQSPGTLSLSPGERVTLSCRASQTVTSNYLAWYQQKPGQAPRLLIYDAFTRATGVPARFSGSGSGTDFTLTISRLEPEDFAVYYCQQYGSSFLTFGGGTKVEIK
notes: full-length IgG from yeast
As for B2, the dissociation constant (Kd) was determined as 0.421 nM in assay [1] and 0.513 nM in assay [2]. Also, in assay [3], the “Neut IC50 (µg/ml) subtype A” value turned out to be 0.034 µg/mL. The “Neut IC50 (µg/ml) subtype B” value in assay [4] came to 0.022 µg/mL.

B3: ADI-18890 (antibody, V domains shown)
VH: QVQLVQSGAEVKRPGSSVKVSCKASGGTFRGYHISWLRQAPGQGLEWLGGITHLFGTVSYAPKFQGRVTITADASTGTLYMVLNSLKPEDTAIYYCARDAYEVWTGSYLPPFDYWGQGTLVTVSS
VL: ETTLTQSPGTLSLSPGERATLSCRASQTVTSNYLAWYQQKPGQAPRLLIYDALTRATGIPDRFSGSGSGTDFTLTISRLEPEDFALYYCQQYGSSFLTFGGGTKVDIK
notes: full-length IgG from yeast
For B3, the dissociation constant (Kd) in assay [1] is 0.458 nM; in assay [2] it was 0.489 nM. The “Neut IC50 (µg/ml) subtype A” value in assay [3] worked out at 0.041 µg/mL. In addition, in assay [4], the “Neut IC50 (µg/ml) subtype B” value was 0.041 µg/mL.

B4: ADI-18958 (antibody, V domains shown)
VH: QVQLQESGAEVKMRGASVKVSCKASGYTFSHYGISWVRQAPGQGLEWMGFISAYNHNTKYAQTVQGRVTLSTDTSTSTAYMELRSLRPDDTAMYYCAREPPSDDAARLFDYWGQGTLVTVSS
VL: ETTLTQSPRSLPVTLGQPASISCRSSQSLVYSEGNTYLSWFQQRPGQSPRRLIYKVSNRDSGVPDRFSGSGSGTDFTLKISRVEAEDVGVYYCMQGTQWPVTFGQGTKVEIK
notes: full-length IgG from yeast
Take B4: the values for the Kd in assay [1] and in assay [2] were 0.302 nM and 0.286 nM, respectively. The “Neut IC50 (µg/ml) subtype A” value in assay [3] was determined as 0.587 µg/mL. The “Neut IC50 (µg/ml) subtype B” value in assay [4] came out at 3.36 µg/mL.

B5: ADI-18969 (antibody, V domains shown)
VH: QVQLVQSGPEVKKPGASVTVSCKASGYTFSHYGISWVRQAPGQGLEWMGWISAYHGQTNYAQNFQGRVTMTTDTSSNTAYMEVRSLRSDDTAVYFCARDVFSKTAARIFDYWGQGTLVTVSS
VL: EIVLTQSPLSLPVTLGQPASISCRSSQSLEYSDGNTYLSWFQQRPGQSPRRLIYKVSNRDSGVPDRFSGSQSGTDFTLKISRVEAEDVGVYYCMQATDWPVTFGQGTKLEIK
notes: full-length IgG from yeast; also called Antibody Number 317; Ab # 317
For the molecule B5, the Kd is 0.297 nM in assay [1] and 0.303 nM in assay [2]. Moreover, in assay [3], the “Neut IC50 (µg/ml) subtype A” value worked out at 0.035 µg/mL. In addition, the “Neut IC50 (µg/ml) subtype B” value in assay [4] came out at 0.187 µg/mL.

B6: ADI-18974 (antibody, V domains shown)
VH: QVQLVQSGPEVKKPGASVRVSCEASGYPFSNYGITWVRQAPGQGLEWMGWISAYNGNRDYLQKFQGRLTMTIDTSTRTAHMELRRLTSDDTAVYWCARDTPATAAPLLDYWGQGTLVTVSS
VL: DIVMTQSPLSLAVTLGQPASISCRSSQSLEFTDGNTYLNWFQQRPGQSPRRLIYKVSNRDSGVPDRFSGSGSGTGFTLKISRVEAEDVGVYYCMQGIFRPGTFGQGTKVEIK
notes: full-length IgG from yeast
In the case of B6, the Kd is 0.29 nM in assay [1] and 0.253 nM in assay [2]. The “Neut IC50 (µg/ml) subtype A” value in assay [3] was determined as 0.03 µg/mL. The “Neut IC50 (µg/ml) subtype B” value in assay [4] was 0.105 µg/mL.

B7: ADI-18960 (antibody, V domains shown)
VH: QVQLQESGPGLVKPSETLSLTCSVSGGSITNVNYYWGWIRQPPGKGLEWIGSIYYNGNTYYNPSLQSRVTMSVDTSKNHFSLRLTSVTAADTAVYFCAREGPNWELLNAFDIWGQGTTVTVSS
VL: DIQVTQPPSVSVAPGQTARITCGGNNIGSKNVHWYQQKPGRAPVLVVYEDTHRPSGIPERFSGSNSGNTATLTISRVEAGDEADYYCQVWDTSSDHVVFGGGTKLTVL
notes: full-length IgG from yeast; also called Antibody Number 311; Ab # 311
With B7, the figures for the Kd in assay [1] and in assay [2] were 0.183 nM and 0.178 nM, respectively. Also, the “Neut IC50 (µg/ml) subtype A” value in assay [3] was 0.034 µg/mL. The “Neut IC50 (µg/ml) subtype B” value in assay [4] was determined as 0.107 µg/mL.

B8: ADI-18977 (antibody, V domains shown)
VH: QVQLVQSGTEVKKPGASVKISCKTSGYTFTNNVIQWVRQAPGQRLEWMGWISAGNGYTKYSDKFQDRVTITRDTSASTAYMEVSSLTSEDTAMYYCARQVSTSGWHATSHRFAPWGQGTLVTVSS
VL: DIQMTQSPSSLSASVGDRVTITCQASQGISRYLNWYQQKPGKAPNLLIYDASNLETGVPSRFSGSGSGTHFTLTISSLQPEDIATYYCQQYDNLPLTFGGGTKVEIK
notes: full-length IgG from yeast
Take B8: the Kd in assay [1] turned out to be 0.966 nM; in assay [2] it was 0.786 nM. Moreover, the “Neut IC50 (µg/ml) subtype A” value in assay [3] was 0.108 µg/mL. Further, in assay [4], the “Neut IC50 (µg/ml) subtype B” value was determined as 0.117 µg/mL.

B9: ADI-18889 (antibody, V domains shown)
VH: QVQLQQWGAGLWKPSQTLSLTCAVHGGSLSGYSWSWIRQSPGRGLEWIGEVNRRGTTNYNPSLKGRVSISWDTSKNQVSLSLRSVTAADTATYYCAGTNVGFVNTHNDYYFGMDVWGQGTTVTVSS
VL: DIVMTQSPSSLSASVGDRVTITCRASQSISNYVNWYQKKTGQVPKLLIYGASNLESGVPSRFSGGGSGTDFTLTISSLQPEDFATYYCQQSYSVPLTFGGGTKVEIK
notes: full-length IgG from yeast; also called Antibody Number 244; Ab # 244
B9: the Kd in assay [1] was found to be 0.587 nM; in assay [2] it was 0.554 nM. Also, the “Neut IC50 (µg/ml) subtype A” value in assay [3] was determined as 0.04 µg/mL. In assay [4], the “Neut IC50 (µg/ml) subtype B” value came to 0.019 µg/mL.

B10: ADI-18966 (antibody, V domains shown)
VH: QVQLVQSGGGVVQPGRSLRLSCAASGFTFRNYGMHWVRQAPGKGLEWVAAASYDGSSKYFADAVKGRFSISRDNTKNTLSLQMTSLRAEDTAVYYCARDPGVGSYYNVVGMDVWGQGTTVTVSS
VL: DIRLTQSPLSLPVTLGQPASISCRSSQSLVYSDGNTYLNWFQQRPGQSPRRLIYRVSHRDSGVPDRFSGSESGTDFTLKISRVEAEDVGVYYCMQGTHWPPTFGQGTKVEIK
notes: full-length IgG from yeast
Consider B10, for which the Kd in assay [1] was determined as 0.562 nM; in assay [2] it was 0.578 nM. In assay [3], the “Neut IC50 (µg/ml) subtype A” value stood at 0.044 µg/mL. Besides, the “Neut IC50 (µg/ml) subtype B” value in assay [4] came to 0.13 µg/mL.

B11: ADI-18883 (antibody, V domains shown)
VH: QVQLVQSGPEVKKPGSSVTVSCKASGGTFSNYGIAWVRQAPGQGLEWMGSTIPILGTASYRQSLKDRVTITADASTTTVYMEMTRLRTEDTAVYFCARVPESLVASNAYAVWGQGTVVTVSS
VL: DIQMTQSPSSVSASVGDRVTITCRASQDISTWLAWYQQRPGKAPKLLIYTASSLQSGVPSRFSGSGSGTEFTLTISSLQPEDFATYYCQQGTSFPFTFGPGTKLEIK
notes: full-length IgG from yeast
In the case of B11, the Kd in assay [1] came out at 0.566 nM; in assay [2], 0.431 nM. In assay [3], the “Neut IC50 (µg/ml) subtype A” value amounted to 0.041 µg/mL. Further, the “Neut IC50 (µg/ml) subtype B” value in assay [4] was 0.05 µg/mL.

B12: ADI-18971 (antibody, V domains shown)
VH: EVQLVESGGGLVQRGGSLRLSCAASGFTFSGNAMSWVRQAPGKGLEWVASIGESATSAYYADSVKGRFTISRDDSKNTLYLQMNSLRPEDTAVYFCAKDRVGWFGEFDAFDFWGQGTMVTVSS
VL: SYELTQPPSVSVAPGKTATISCGGNNIGGHKVHWYQQRPGQAPVLVIYYDNVRPSGIPERFSGSNSGNTATLTISRVEAGDEADFYCQVWDSRSEHVIFGGGTKVTVL
notes: full-length IgG from yeast; also called Antibody Number 319; Ab # 319
On to B12, for which the equilibrium dissociation constant (Kd) in assay [1] worked out at 0.168 nM; in assay [2] it was 0.157 nM. Besides, in assay [3], the “Neut IC50 (µg/ml) subtype A” value was 0.039 µg/mL. Besides, in assay [4], the “Neut IC50 (µg/ml) subtype B” value is 0.114 µg/mL.
